We go through 3 molecules from US20020048794A1 (published 2002).

The target of test [1] is 35S-labeled, in vitro translated full length HIF-1 alpha (human, UniProt Q16665 1-826, 35S-methionine labeled). Description: co-immunoprecipitation with anti-GAL4, in vitro translated proteins.
The target of test [2] is T1, VHL (von Hippel-Lindau tumor suppressor protein), full-length (Homo sapiens (Human), UniProt P40337 1-213, 35S-methionine labeled in the in vitro assays).
T1 construct: also called 35S-labeled VHL; 35S-labeled full-length VHL
Description: co-immunoprecipitation with anti-FLAG, in vitro translated proteins.

In test [3] the target is T1, VHL (von Hippel-Lindau tumor suppressor …). Kind of test: co-immunoprecipitation with anti-GAL4, in vitro translated proteins.

B1: GAL4/VHL 114-154 fragment (other)
chain: MKLLSSIEQACDICRLKKLKCSKEKPKCAKCLKNNWECRYSPKTKRSPLTRAHLTEVESRLERLEQLFLLIFPREDLDMILKMDSLQDIKALLTGLFVQDNVNKDAVTDRLASVETDMPLTLRQHRISATSSSEESSNKGQRQLTVSGHLWLFRDAGTHDGLLVNQTELFVPSLNVDGQPIFANITLP
With B1, in test [1], the binding result is listed as “no binding”.

B2: FLAG-tagged mutant N-TAD of HIF-1 alpha (PYI triplet substituted with three aspartic acid residues) (other, not shown: small tags and cut ends)
chain: KLELVEKLFAEDTEAKNPFSTQDTDLDLEMLADDDPMDDDFQLRSFDQLSPLES
notes: also called mt N-TAD; PYI mutant N-TAD
For the molecule B2, the binding result in test [2] is “no binding”.

B3: GAL4/HIF-1 alpha 778-826 (other)
chain: MKLLSSIEQACDICRLKKLKCSKEKPKCAKCLKNNWECRYSPKTKRSPLTRAHLTEVESRLERLEQLFLLIFPREDLDMILKMDSLQDIKALLTGLFVQDNVNKDAVTDRLASVETDMPLTLRQHRISATSSSEESSNKGQRQLTVSLACRLLGQSMDESGLPQLTSYDCEVNAPIQGSRNLLQGEELLRALDQVN
Regarding B3, the binding result in test [3] is recorded as “no binding”.
